Results: patent US20240352098A1 (AstraZeneca / MedImmune, published 2024)
Changes are numbered by the printed parent chain. Numbers in names are those of the source.

T1: ClfA (Staphylococcus aureus)
T1 chain: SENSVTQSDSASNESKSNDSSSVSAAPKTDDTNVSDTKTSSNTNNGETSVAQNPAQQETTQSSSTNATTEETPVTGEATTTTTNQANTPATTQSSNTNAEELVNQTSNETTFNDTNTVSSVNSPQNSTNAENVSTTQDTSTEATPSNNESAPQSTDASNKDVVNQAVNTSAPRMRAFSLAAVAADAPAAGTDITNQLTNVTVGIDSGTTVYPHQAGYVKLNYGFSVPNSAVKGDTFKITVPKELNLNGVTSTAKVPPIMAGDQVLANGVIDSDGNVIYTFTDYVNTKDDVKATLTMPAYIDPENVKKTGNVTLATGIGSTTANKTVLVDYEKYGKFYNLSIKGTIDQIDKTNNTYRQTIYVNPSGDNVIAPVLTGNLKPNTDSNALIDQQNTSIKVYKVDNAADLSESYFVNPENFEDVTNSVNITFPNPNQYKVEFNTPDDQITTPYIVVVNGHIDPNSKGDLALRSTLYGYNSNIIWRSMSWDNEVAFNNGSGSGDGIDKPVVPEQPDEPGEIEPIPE

T2: S. aureus clumping factor A, founder genotype ClfA002 (Staphylococcus aureus, UniProt Q99VJ4 221-559)
T2 sequence: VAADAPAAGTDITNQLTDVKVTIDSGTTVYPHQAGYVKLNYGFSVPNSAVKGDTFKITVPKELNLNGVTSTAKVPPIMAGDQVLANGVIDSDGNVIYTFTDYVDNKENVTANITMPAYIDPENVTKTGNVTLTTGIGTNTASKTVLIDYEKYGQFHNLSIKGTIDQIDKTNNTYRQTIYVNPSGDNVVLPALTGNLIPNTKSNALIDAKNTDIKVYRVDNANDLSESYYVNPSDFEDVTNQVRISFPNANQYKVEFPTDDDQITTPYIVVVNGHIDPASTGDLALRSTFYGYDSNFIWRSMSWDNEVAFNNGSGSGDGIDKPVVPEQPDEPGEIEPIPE

B1: N3F (antibody)
heavy: QVQLQESGPGLVKPSETLSLTCTVSGGSIQNSYWSWIRQPPGKGLEWIGYLYSSGRTNYTPSLKSRVTISVDTSKNQFSLKLSSVTAADTAVYYCARTHLGGFHYGGGFWFDPWGQGTLVTVSSASTKGPSVFPLAPSSKSTSGGTAALGCLVKDYFPEPVTVSWNSGALTSGVHTFPAVLQSSGLYSLSSVVTVPSSSLGTQTYICNVNHKPSNTKVDKRVEPKSCDKTHTCPPCPAPELLGGPSVFLFPPKPKDTLMISRTPEVTCVVVDVSHEDPEVKFNWYVDGVEVHNAKTKPREEQYNSTYRVVSVLTVLHQDWLNGKEYKCKVSNKALPAPIEKTISKAKGQPREPQVYTLPPSREEMTKNQVSLTCLVKGFYPSDIAVEWESNGQPENNYKTTPPVLDSDGSFFLYSKLTVDKSRWQQGNVFSCSVMHEACSFHLCQKSLSLSPGK
light: DIQMTQSPSSLSASVGDRVTITCRASQSITSYLNWYQQKPGKAPKLLIYASSSLQSGVPSRFSGSGSGTDFTLTISSLQPEDFATYYCQESYSTPPTFGQGTKVEIKRTVAAPSVFIFPPSDEQLKSGTASVVCLLNNFYPREAKVQWKVDNALQSGNSQESVTEQDSKDSTYSLSSTLTLSKADYEKHKVYACEVTHQGLSSPVTKSFNRGEC
notes: copies: 2 + 2
B2: N3Y (antibody)
heavy chain: B1 heavy with F441Y
light chain: B1 light
B3: SAR114 anti-ClfA monoclonal antibody (antibody)
heavy: not shown
light: B1 light
B4: SAR114-N3 (antibody)
heavy: B1 heavy with F441W
light: B1 light

Assays:
[1] = biological target: T1, ClfA; experiment: fibrinogen binding inhibition ('Fg IH' / 'fibrinogen assay'); blocked ligand fibrinogen; sample before light exposure; ClfA genotype not stated; printed in both tables
[2] = biological target: T1, ClfA; experiment: fibrinogen binding inhibition ('Fg IH' / 'fibrinogen assay'); blocked ligand fibrinogen; sample after 1 week of light exposure; ClfA genotype not stated; printed in both tables
[3] = biological target: T1, ClfA; experiment: fibrinogen binding inhibition ('Fg IH' / 'fibrinogen assay'); blocked ligand fibrinogen; sample after 2 weeks of light exposure; ClfA genotype not stated; printed in both tables
[4] = biological target: T1, ClfA; experiment: fibrinogen binding inhibition ('IC50 (ug/ml) fibrinogen assay'); blocked ligand fibrinogen; sample after 2 weeks of light exposure; ClfA genotype not stated; printed only in the right-hand table
[5] = biological target: T2, S. aureus clumping factor A, founder …; experiment: Biacore
[6] = biological target: T3, S. aureus clumping factor A, founder genotype ClfA004 (Staphylococcus aureus); experiment: Biacore
T3 construct: range 221-559

[7] = biological target: T2, S. aureus clumping factor A, founder …
[8] = biological target: T3, S. aureus clumping factor A, founder …
[9] = biological target: T2, S. aureus clumping factor A, founder …; experiment: inhibition of ClfA binding to fibrinogen
[10] = biological target: T3, S. aureus clumping factor A, founder …; experiment: inhibition of ClfA binding to fibrinogen
[11] = biological target: T2, S. aureus clumping factor A, founder …; experiment: fibrinogen binding inhibition assay (FIG. 1B)
[12] = biological target: T3, S. aureus clumping factor A, founder …; experiment: fibrinogen binding inhibition assay (FIG. 1B)
[13] = biological target: T2, S. aureus clumping factor A, founder …; experiment: Biacore, antibody captured, ClfA as sample
[14] = biological target: T3, S. aureus clumping factor A, founder …; experiment: Biacore, antibody captured, ClfA as sample
[15] = biological target: T2, S. aureus clumping factor A, founder …; experiment: affinity kinetics, method not named (Table 1)
[16] = biological target: T3, S. aureus clumping factor A, founder …; experiment: affinity kinetics, method not named (Table 1)
[17] = biological target: T2, S. aureus clumping factor A, founder …; experiment: ELISA, inhibition of ClfA binding to immobilised fibrinogen
[18] = biological target: T3, S. aureus clumping factor A, founder …; experiment: as above
[19] = biological target: T2, S. aureus clumping factor A, founder …; experiment: fibrinogen binding inhibition assay (ClfA binding to fibrinogen)
[20] = biological target: T3, S. aureus clumping factor A, founder …; experiment: as above

Row | Binder | IC50 [1] | IC50 [2] | IC50 [9] | IC50 [10] | Kd [13] | koff [13] | kon [13] | Kd [14] | koff [14] | kon [14] | also measured
1 | B1 | 9.95 µg/mL | 19.9 µg/mL | – | – | – | – | – | – | – | – | IC50 [3]: 27.8 µg/mL
2 | B2 | 6.28 µg/mL | 9.2 µg/mL | – | – | – | – | – | – | – | – | IC50 [4]: 12.7 µg/mL
3 | B3 | – | – | 2.91 µg/mL | 1.72 µg/mL | 0.0477 nM | 0.000182 s⁻¹ | 3.82e+06 M⁻¹ s⁻¹ | 0.0209 nM | 6.21e-05 s⁻¹ | 2.97e+06 M⁻¹ s⁻¹ | fold tighter binding (KD) than SAR114-N3 [5]: ~10 fold; fold tighter binding (KD) than SAR114-N3 [6]: ~10 fold; IC50 (read off the curve) [7]: ~10000 nM; IC50 (read off the curve) [8]: ~30000 nM; IC50 [11]: ~20000 nM; IC50 [12]: ~20000 nM; Kd [15]: 0.0448 nM; koff [15]: 9.53e-05 s⁻¹; kon [15]: 2.13e+06 M⁻¹ s⁻¹; Kd [16]: 0.00115 nM; koff [16]: 6.46e-06 s⁻¹; kon [16]: 5.62e+06 M⁻¹ s⁻¹; IC50 [17]: 14.3 nM; IC50 [18]: 8.08 nM; IC50 [19]: 1.16 µg/mL; IC50 [20]: 1.63 µg/mL
4 | B4 | – | – | 3.11 µg/mL | 2.52 µg/mL | 0.265 nM | 0.00104 s⁻¹ | 3.92e+06 M⁻¹ s⁻¹ | 0.316 nM | 0.000756 s⁻¹ | 2.39e+06 M⁻¹ s⁻¹ | –
